One substance from publication PMC10539301 can be followed below.

In this test the target is ATAD2 Walker B mutant (E532Q), aa 403-1390 (human) (UniProt Q6PL18).
Sequence of ATAD2 Walker B mutant (E532Q), aa 403-1390 (human) (Q6PL18 403-1390 E532Q): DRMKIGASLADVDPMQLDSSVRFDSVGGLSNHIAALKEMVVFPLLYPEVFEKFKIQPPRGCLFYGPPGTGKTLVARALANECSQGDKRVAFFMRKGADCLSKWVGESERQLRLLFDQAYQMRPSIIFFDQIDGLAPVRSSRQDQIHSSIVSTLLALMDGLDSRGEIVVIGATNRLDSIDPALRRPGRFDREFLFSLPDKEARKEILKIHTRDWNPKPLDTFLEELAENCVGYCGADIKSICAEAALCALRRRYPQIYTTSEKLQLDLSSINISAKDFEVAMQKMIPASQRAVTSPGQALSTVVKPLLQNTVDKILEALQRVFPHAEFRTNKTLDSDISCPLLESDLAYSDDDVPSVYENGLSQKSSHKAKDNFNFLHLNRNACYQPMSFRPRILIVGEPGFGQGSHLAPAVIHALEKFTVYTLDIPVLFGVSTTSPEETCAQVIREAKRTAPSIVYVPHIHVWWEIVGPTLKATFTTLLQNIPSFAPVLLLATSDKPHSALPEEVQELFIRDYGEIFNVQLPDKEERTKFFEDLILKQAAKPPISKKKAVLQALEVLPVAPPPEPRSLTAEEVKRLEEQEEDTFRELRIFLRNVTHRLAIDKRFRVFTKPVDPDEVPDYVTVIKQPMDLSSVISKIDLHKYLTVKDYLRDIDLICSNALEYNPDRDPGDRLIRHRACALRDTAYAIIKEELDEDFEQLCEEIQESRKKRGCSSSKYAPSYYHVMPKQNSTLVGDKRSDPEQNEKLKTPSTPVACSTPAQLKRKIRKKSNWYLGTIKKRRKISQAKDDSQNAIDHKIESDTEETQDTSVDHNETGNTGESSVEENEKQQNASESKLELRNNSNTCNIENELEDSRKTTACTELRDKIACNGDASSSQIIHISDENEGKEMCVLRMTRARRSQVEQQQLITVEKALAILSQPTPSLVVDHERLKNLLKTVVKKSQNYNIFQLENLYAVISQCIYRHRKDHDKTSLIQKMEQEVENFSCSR

“Histone H3/H4 complex (X. laevis, wild type, refolded) (from UniProt P84233 1-136; P62799 1-103)” showed an HS-AFM: increase of the frequency of symmetry breaking of the ATAD2 Walker B hexameric ring (events per ring or per cumulative observation time) with H3/H4 of 40%; an HS-AFM: reversibility of symmetry breaking of the ATAD2 Walker B hexameric ring, without and with H3/H4 of 30%.
